{"source": "paper PMC11582362", "system": "chimeric ADAR1-dsRBD3/Xlrbpa-dsRBD2 (Homo sapiens / Xenopus laevis?)", "assay": "ITC", "settings": "N = 3.05 ± 0.31; ITC: 25 mM Na-phosphate pH 7.0, 100 mM NaCl, 2 mM 2-mercaptoethanol, 25 °C; 2.25 uM dsRNA in cell, 80 uM protein in syringe", "data": [{"sequence": "GGGAUCAAUAUGCUAAGCGAUCCC / GGGAUCGCUUAGCAUAUUGAUCCC [24 bp dsRNA duplex]", "values": [{"measurement": "Kd", "result": 500, "unit": "nM"}]}]}
